In the experiment the target is Trypanosoma brucei ADAT3 (full-length, His-tagged) (Trypanosoma brucei). Put plainly: cryo-EM structure.

As a reminder, the stoichiometry N is a count of units in the complex or per binding partner.

Take “Trypanosoma brucei ADAT2 (full-length, A87G/C117S) (enzyme)”: the stoichiometry N is 1.

The values are drawn from paper doi:10.1101/2022.06.16.496122.
